{
  "source": "patent US20240117018A1",
  "experiment_in_all_cases": "cell-based or functional assay",
  "key": {"[1]": {"biological_target": "HIV-1 Env of pseudovirus Du172.17 (HIV-1)"}, "[2]": {"biological_target": "HIV-1 Env of pseudovirus 1056_10_TA11_1826 (HIV-1)"}, "[3]": {"biological_target": "HIV-1 Env of pseudovirus THRO4156.18 (HIV-1)"}, "[4]": {"biological_target": "HIV-1 Env of pseudovirus Ce0393_C3 (HIV-1)"}, "[5]": {"biological_target": "HIV-1 Env of pseudovirus 6240_08_TA5_4622 (HIV-1)"}, "[6]": {"biological_target": "HIV-1 Env of pseudovirus 249M B10 (HIV-1)"}, "[7]": {"biological_target": "HIV-1 Env of pseudovirus WEAU_d15_410_787 (HIV-1)"}, "[8]": {"biological_target": "HIV-1 Env of pseudovirus Q769.d22 (HIV-1)"}, "[9]": {"biological_target": "HIV-1 Env of pseudovirus Ce1086_B2 (HIV-1)"}, "[10]": {"biological_target": "HIV-1 Env of pseudovirus 1394C9G1(Rev-) (HIV-1)"}, "[11]": {"biological_target": "HIV-1 Env of pseudovirus QH0692.42 (HIV-1)"}, "[12]": {"biological_target": "HIV-1 Env of pseudovirus CNE21 (HIV-1)"}, "[13]": {"biological_target": "HIV-1 Env of pseudovirus 7030102001E5(Rev-) (HIV-1)"}, "[14]": {"biological_target": "HIV-1 Env of pseudovirus Ce703010054_2A2 (HIV-1)"}, "[15]": {"biological_target": "HIV-1 Env of pseudovirus Ce1176_A3 (HIV-1)"}, "[16]": {"biological_target": "HIV-1 Env of pseudovirus CNE5 (HIV-1)"}, "[17]": {"biological_target": "HIV-1 Env of pseudovirus Q23.17 (HIV-1)"}, "[18]": {"biological_target": "HIV-1 Env of pseudovirus 246F C1G (HIV-1)"}, "[19]": {"biological_target": "HIV-1 Env of pseudovirus 1012_11_TC21_3257 (HIV-1)"}, "[20]": {"biological_target": "HIV-1 Env of pseudovirus Ce704809221_1B3 (HIV-1)"}, "[21]": {"biological_target": "HIV-1 Env of pseudovirus Du156.12 (HIV-1)"}, "[22]": {"biological_target": "HIV-1 Env of pseudovirus ZM249M.PL1 (HIV-1)"}, "[23]": {"biological_target": "HIV-1 Env of pseudovirus TRJO4551.58 (HIV-1)"}, "[24]": {"biological_target": "HIV-1 Env of pseudovirus T250-4 (HIV-1)"}, "[25]": {"biological_target": "HIV-1 Env of pseudovirus CNE58 (HIV-1)"}, "[26]": {"biological_target": "HIV-1 Env of pseudovirus ZM109F.PB4 (HIV-1)"}, "[27]": {"biological_target": "HIV-1 Env of pseudovirus ZM214M.PL15 (HIV-1)"}, "[28]": {"biological_target": "HIV-1 Env of pseudovirus HIV-001428-2.42 (HIV-1)"}, "[29]": {"biological_target": "HIV-1 Env of pseudovirus 1006_11_C3_1601 (HIV-1)"}, "[30]": {"biological_target": "HIV-1 Env of pseudovirus 0260.v5.c36 (HIV-1)"}, "[31]": {"biological_target": "HIV-1 Env of pseudovirus CAP210.2.00.E8 (HIV-1)"}, "[32]": {"biological_target": "HIV-1 Env of pseudovirus HIV-0013095-2.11 (HIV-1)"}, "[33]": {"biological_target": "HIV-1 Env of pseudovirus CNE8 (HIV-1)"}, "[34]": {"biological_target": "HIV-1 Env of pseudovirus HIV-16055-2.3 (HIV-1)"}, "[35]": {"biological_target": "HIV-1 Env of pseudovirus HIV-16845-2.22 (HIV-1)"}, "[36]": {"biological_target": "HIV-1 Env of pseudovirus RHPA4259.7 (HIV-1)"}},
  "data": [
    {"substance": "PGDM1400 (antibody)", "values": [
      {"measurement": "neutralization IC50", "setting": "[1]", "value": 5.18, "unit": "µg/mL"},
      {"measurement": "neutralization IC80", "setting": "[1]", "value": 22, "unit": "µg/mL"},
      {"measurement": "neutralization IC50", "setting": "[2]", "value": 3.26, "unit": "µg/mL"},
      {"measurement": "neutralization IC80", "setting": "[2]", "value": 11.8, "unit": "µg/mL"},
      {"measurement": "neutralization IC50", "setting": "[3]", "value": 0.072, "unit": "µg/mL"},
      {"measurement": "neutralization IC80", "setting": "[3]", "value": 0.348, "unit": "µg/mL"},
      {"measurement": "neutralization IC50", "setting": "[4]", "value": 0.015, "unit": "µg/mL"},
      {"measurement": "neutralization IC80", "setting": "[4]", "value": 0.044, "unit": "µg/mL"},
      {"measurement": "neutralization IC50", "setting": "[5]", "value": "> 50", "unit": "µg/mL"},
      {"measurement": "neutralization IC80", "setting": "[5]", "value": "> 50", "unit": "µg/mL"},
      {"measurement": "neutralization IC50", "setting": "[6]", "value": 0.039, "unit": "µg/mL"},
      {"measurement": "neutralization IC80", "setting": "[6]", "value": 0.786, "unit": "µg/mL"},
      {"measurement": "neutralization IC50", "setting": "[7]", "value": 0.103, "unit": "µg/mL"},
      {"measurement": "neutralization IC80", "setting": "[7]", "value": 1.37, "unit": "µg/mL"},
      {"measurement": "neutralization IC50", "setting": "[8]", "value": 0.002, "unit": "µg/mL"},
      {"measurement": "neutralization IC80", "setting": "[8]", "value": 0.018, "unit": "µg/mL"},
      {"measurement": "neutralization IC50", "setting": "[9]", "value": "> 50", "unit": "µg/mL"},
      {"measurement": "neutralization IC80", "setting": "[9]", "value": "> 50", "unit": "µg/mL"},
      {"measurement": "neutralization IC50", "setting": "[10]", "value": "< 0.001", "unit": "µg/mL"},
      {"measurement": "neutralization IC80", "setting": "[10]", "value": 0.004, "unit": "µg/mL"},
      {"measurement": "neutralization IC50", "setting": "[11]", "value": "> 50", "unit": "µg/mL"},
      {"measurement": "neutralization IC80", "setting": "[11]", "value": "> 50", "unit": "µg/mL"},
      {"measurement": "neutralization IC50", "setting": "[12]", "value": "< 0.001", "unit": "µg/mL"},
      {"measurement": "neutralization IC80", "setting": "[12]", "value": 0.002, "unit": "µg/mL"},
      {"measurement": "neutralization IC50", "setting": "[13]", "value": "> 50", "unit": "µg/mL"},
      {"measurement": "neutralization IC80", "setting": "[13]", "value": "> 50", "unit": "µg/mL"},
      {"measurement": "neutralization IC50", "setting": "[14]", "value": 0.015, "unit": "µg/mL"},
      {"measurement": "neutralization IC80", "setting": "[14]", "value": 0.26, "unit": "µg/mL"},
      {"measurement": "neutralization IC50", "setting": "[15]", "value": 0.587, "unit": "µg/mL"},
      {"measurement": "neutralization IC80", "setting": "[15]", "value": 11.6, "unit": "µg/mL"},
      {"measurement": "IC50 (Titer in TZM.bl cells)", "setting": "[16]", "value": "< 0.001", "unit": "µg/mL"},
      {"measurement": "IC80 (Titer in TZM.bl cells)", "setting": "[16]", "value": "< 0.001", "unit": "µg/mL"},
      {"measurement": "neutralization IC50", "setting": "[17]", "value": "< 0.001", "unit": "µg/mL"},
      {"measurement": "neutralization IC80", "setting": "[17]", "value": 0.003, "unit": "µg/mL"},
      {"measurement": "neutralization IC50", "setting": "[18]", "value": "> 50", "unit": "µg/mL"},
      {"measurement": "neutralization IC80", "setting": "[18]", "value": "> 50", "unit": "µg/mL"},
      {"measurement": "neutralization IC50", "setting": "[19]", "value": 0.049, "unit": "µg/mL"},
      {"measurement": "neutralization IC80", "setting": "[19]", "value": 0.23, "unit": "µg/mL"},
      {"measurement": "neutralization IC50", "setting": "[20]", "value": 0.28, "unit": "µg/mL"},
      {"measurement": "neutralization IC80", "setting": "[20]", "value": 1.1, "unit": "µg/mL"},
      {"measurement": "neutralization IC50", "setting": "[21]", "value": 0.002, "unit": "µg/mL"},
      {"measurement": "neutralization IC80", "setting": "[21]", "value": 0.008, "unit": "µg/mL"},
      {"measurement": "neutralization IC50", "setting": "[22]", "value": 0.016, "unit": "µg/mL"},
      {"measurement": "neutralization IC80", "setting": "[22]", "value": 0.701, "unit": "µg/mL"},
      {"measurement": "neutralization IC50", "setting": "[23]", "value": "> 50", "unit": "µg/mL"},
      {"measurement": "neutralization IC80", "setting": "[23]", "value": "> 50", "unit": "µg/mL"},
      {"measurement": "neutralization IC50", "setting": "[24]", "value": "< 0.001", "unit": "µg/mL"},
      {"measurement": "neutralization IC80", "setting": "[24]", "value": "< 0.001", "unit": "µg/mL"},
      {"measurement": "neutralization IC50", "setting": "[25]", "value": 0.004, "unit": "µg/mL"},
      {"measurement": "neutralization IC80", "setting": "[25]", "value": 0.014, "unit": "µg/mL"},
      {"measurement": "neutralization IC50", "setting": "[26]", "value": 0.057, "unit": "µg/mL"},
      {"measurement": "neutralization IC80", "setting": "[26]", "value": 0.382, "unit": "µg/mL"},
      {"measurement": "neutralization IC50", "setting": "[27]", "value": "> 50", "unit": "µg/mL"},
      {"measurement": "neutralization IC80", "setting": "[27]", "value": "> 50", "unit": "µg/mL"},
      {"measurement": "neutralization IC50", "setting": "[28]", "value": "< 0.001", "unit": "µg/mL"},
      {"measurement": "neutralization IC80", "setting": "[28]", "value": 0.027, "unit": "µg/mL"},
      {"measurement": "neutralization IC50", "setting": "[29]", "value": 4.32, "unit": "µg/mL"},
      {"measurement": "neutralization IC80", "setting": "[29]", "value": "> 50", "unit": "µg/mL"},
      {"measurement": "neutralization IC50", "setting": "[30]", "value": 0.033, "unit": "µg/mL"},
      {"measurement": "neutralization IC80", "setting": "[30]", "value": 0.175, "unit": "µg/mL"},
      {"measurement": "neutralization IC50", "setting": "[31]", "value": 0.034, "unit": "µg/mL"},
      {"measurement": "neutralization IC80", "setting": "[31]", "value": 0.514, "unit": "µg/mL"},
      {"measurement": "neutralization IC50", "setting": "[32]", "value": 0.003, "unit": "µg/mL"},
      {"measurement": "neutralization IC80", "setting": "[32]", "value": 0.012, "unit": "µg/mL"},
      {"measurement": "IC50 (Titer in TZM.bl cells)", "setting": "[33]", "value": "< 0.001", "unit": "µg/mL"},
      {"measurement": "IC80 (Titer in TZM.bl cells)", "setting": "[33]", "value": 0.01, "unit": "µg/mL"},
      {"measurement": "neutralization IC50", "setting": "[34]", "value": "< 0.001", "unit": "µg/mL"},
      {"measurement": "neutralization IC80", "setting": "[34]", "value": 0.003, "unit": "µg/mL"},
      {"measurement": "neutralization IC50", "setting": "[35]", "value": "> 50", "unit": "µg/mL"},
      {"measurement": "neutralization IC80", "setting": "[35]", "value": "> 50", "unit": "µg/mL"},
      {"measurement": "neutralization IC50", "setting": "[36]", "value": 0.447, "unit": "µg/mL"},
      {"measurement": "neutralization IC80", "setting": "[36]", "value": 2.19, "unit": "µg/mL"}
    ]}
  ]
}
